According to patent publication US20170298425:

B1: TlpA-CC-DED (TlpA coiled-coil domain with Asp-Glu-Asp appended to the C-terminus) (protein)
chain: MRPATYEPEQIIEAGLALQAEGRNITGFALRNQVGGGNPTRLRQIWDEYQASQSTVVTEPVAELPVEVAEEVKAVSAALSERITQLATELNDKAVRAAERRVAEVTRAAGEQTAQAERELADAAQTVDDLEEKLDELQDRYDSLTLALESERSLRQQHDVEMAQLKERLAAAEENTRQREERYQEQKTVLQDALNAEQAQHKNTREDLQKRLEQISAEANARTEELKSERDKVNTLLTRLESQENALASERQQHLATRETLQQRLEQAIADTQARAGEIALERDRVSSLTARLESQEKASSEQLVRMGSEIASLTERCTQLENQRDDARLETMGEKETVAALRGEAEALKRQNQSLMAALSGNKQTGGQNADED
Q: Which Hill coefficient (fit of CD melting curve at 222 nm, 25-50 C) does the source give for B1 here?
A: 16.7

B2: DED-TlpA-CC (TlpA coiled-coil domain with Asp-Glu-Asp appended to the N-terminus) (protein)
chain: DEDMRPATYEPEQIIEAGLALQAEGRNITGFALRNQVGGGNPTRLRQIWDEYQASQSTVVTEPVAELPVEVAEEVKAVSAALSERITQLATELNDKAVRAAERRVAEVTRAAGEQTAQAERELADAAQTVDDLEEKLDELQDRYDSLTLALESERSLRQQHDVEMAQLKERLAAAEENTRQREERYQEQKTVLQDALNAEQAQHKNTREDLQKRLEQISAEANARTEELKSERDKVNTLLTRLESQENALASERQQHLATRETLQQRLEQAIADTQARAGEIALERDRVSSLTARLESQEKASSEQLVRMGSEIASLTERCTQLENQRDDARLETMGEKETVAALRGEAEALKRQNQSLMAALSGNKQTGGQNA
Q: With B2 as the protein, how does the Hill coefficient (fit of CD melting curve at 222 nm, 25-50 C) read?
A: 24.7

B3: TlpA-CC WT (TlpA coiled-coil domain, wild type) (protein)
chain: MRPATYEPEQIIEAGLALQAEGRNITGFALRNQVGGGNPTRLRQIWDEYQASQSTVVTEPVAELPVEVAEEVKAVSAALSERITQLATELNDKAVRAAERRVAEVTRAAGEQTAQAERELADAAQTVDDLEEKLDELQDRYDSLTLALESERSLRQQHDVEMAQLKERLAAAEENTRQREERYQEQKTVLQDALNAEQAQHKNTREDLQKRLEQISAEANARTEELKSERDKVNTLLTRLESQENALASERQQHLATRETLQQRLEQAIADTQARAGEIALERDRVSSLTARLESQEKASSEQLVRMGSEIASLTERCTQLENQRDDARLETMGEKETVAALRGEAEALKRQNQSLMAALSGNKQTGGQNA
Q: With B3 as the protein, how does the Hill coefficient (fit of CD melting curve at 222 nm, 25-50 C) read?
A: 19.1
